This is an account of results in publication PMC2810336, “Mutational Analysis of Highly Conserved Residues in the Phage PhiC31 Integrase Reveals Key Amino Acids Necessary for the DNA Recombination”.

Substitutions are numbered along the chain they refer to.

Experiment in all cases: EMSA; 400 nM protein; 50 ng/ul Poly (competitor (so in the source)), 0.05% NP-40, 50 mM KCl, 5 mM MgCl2, 10 mM EDTA, 20 ul, 0.4 ng (16 fmol) probe; 30 min at room temperature (Methods) or 30 C; pH not stated; synapsis 2 h at 30 C
Conditions in all cases: protein: recombinant; tags: C-terminal His; chain copies: 2; label: biotin, double-strand end-labeled; blunt

One series has as its target T1, phiC31 integrase V566A (Streptomyces phage phiC31, UniProt Q38194 1-613, V566A).
T1 sequence: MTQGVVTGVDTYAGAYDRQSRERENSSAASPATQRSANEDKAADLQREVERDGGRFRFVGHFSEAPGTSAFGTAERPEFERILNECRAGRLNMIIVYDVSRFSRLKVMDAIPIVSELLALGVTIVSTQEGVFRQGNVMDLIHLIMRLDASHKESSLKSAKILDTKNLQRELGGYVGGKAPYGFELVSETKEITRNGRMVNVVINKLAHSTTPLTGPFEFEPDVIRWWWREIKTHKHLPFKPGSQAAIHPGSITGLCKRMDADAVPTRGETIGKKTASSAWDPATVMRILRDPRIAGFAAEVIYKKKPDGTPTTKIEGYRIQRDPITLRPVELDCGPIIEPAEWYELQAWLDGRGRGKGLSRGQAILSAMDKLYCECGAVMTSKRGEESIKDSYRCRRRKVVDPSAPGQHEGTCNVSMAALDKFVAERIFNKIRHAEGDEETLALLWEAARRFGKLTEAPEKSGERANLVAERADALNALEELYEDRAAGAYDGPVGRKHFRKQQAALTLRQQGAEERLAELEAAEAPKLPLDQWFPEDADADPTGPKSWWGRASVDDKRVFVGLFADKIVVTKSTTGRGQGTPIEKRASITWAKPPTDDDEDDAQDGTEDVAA

A further series addresses T2, phiC31 integrase V571A (Streptomyces phage phiC31, UniProt Q38194 1-613, V571A).
T2 sequence: T1 sequence with A566V, V571A

For series [1], the target named is T3, phiC31 integrase G182A/F183A (Streptomyces phage phiC31, UniProt Q38194 1-613, G182A;F183A).
T3 sequence: T1 sequence with G182A, F183A, A566V

B1: attB 41 bp (dsDNA)
DNA 1: CGGGTGCCAGGGCGTGCCCTTGGGCTCCCCGGGCGCGTACT
DNA 2: AGTACGCGCCCGGGGAGCCCAAGGGCACGCCCTGGCACCCG
B1: the binding signal in the series with phiC31 integrase V566A is 0 % of WT; with phiC31 integrase V571A it was 15.6 ± 1.7 % of WT; in series [1] it was 0 % of WT.
